37 variants from the Human Domainome abundance scans (Beltran et al. 2025) can be followed below.

The chains are these.
B1: Far upstream element-binding protein 2, residues 142 to 214; numbered along this chain, Q92945 (parent)
chain: RTSMTEEYRVPDGMVGLIIGRGGEQINKIQQDSGCKVQISPDSGGLPERSVSLTGAPESVQKAKMMLDDIVSR

± gives the uncertainty stated by the source.

Variants of B1 are the subject of this series. The series can be described thus: abundance fitness (aPCA) (normalised: wild type 0, dead -1); higher = more abundant; growth selection in yeast, the domain comes from the species named. The conditions noted are these: Homo sapiens.
Consider RTSMTEEYRVPDGMVGLIIGRGGEQINKIQQDSGCKVQISPDSGGLPERSVSLTGAPESVQKAKMMGDDIVSR [L67G], for which the abundance fitness was -0.602 ± 0.038.
On to RTSMTEEYRVPDGMVGLIIGRGGEQINKIQQDSGCKVQISPDSGGLPERSVSLTGAPESVQKAKMMPDDIVSR [L67P], for which the abundance fitness was -0.652 ± 0.064.
To RTSMTEEYRVPDGMVGLIIGRGGEQINKIQQDSGCKVQISPDSGGLPERSVSLTGAPESVQKAKMMVDDIVSR [L67V] belongs -0.327 ± 0.043.
Turning to RTSMTEEYRVPDGMVGLIIGRGGEQINKIQQDSGCKVQISPDSGGLPERSVSLTGAPESVQKAKMMSDDIVSR [L67S], the abundance fitness is -0.553 ± 0.048.
To RTSMTEEYRVPDGMVGLIIGRGGEQINKIQQDSGCKVQISPDSGGLPERSVSLTGAPESVQKAKMMTDDIVSR [L67T] belongs -0.562 ± 0.059; to RTSMTEEYRVPDGMVGLIIGRGGEQINKIQQDSGCKVQISPDSGGLPERSVSLTGAPESVQKAKMMRDDIVSR [L67R], -0.778 ± 0.042.
For RTSMTEEYRVPDGMVGLIIGRGGEQINKIQQDSGCKVQISPDSGGLPERSVSLTGAPESVQKAKMMFDDIVSR [L67F] the value was -0.41 ± 0.072.
Turning to RTSMTEEYRVPDGMVGLIIGRGGEQINKIQQDSGCKVQISPDSGGLPERSVSLTGAPESVQKAKMMNDDIVSR [L67N], the abundance fitness is -0.601 ± 0.065.
For the variant RTSMTEEYRVPDGMVGLIIGRGGEQINKIQQDSGCKVQISPDSGGLPERSVSLTGAPESVQKAKMMKDDIVSR [L67K], the abundance fitness was -0.582 ± 0.056.
For RTSMTEEYRVPDGMVGLIIGRGGEQINKIQQDSGCKVQISPDSGGLPERSVSLTGAPESVQKAKMMIDDIVSR [L67I] the value was 0.041 ± 0.069; for RTSMTEEYRVPDGMVGLIIGRGGEQINKIQQDSGCKVQISPDSGGLPERSVSLTGAPESVQKAKMMMDDIVSR [L67M], -0.055 ± 0.053.
To RTSMTEEYRVPDGMVGLIIGRGGEQINKIQQDSGCKVQISPDSGGLPERSVSLTGAPESVQKAKMMDDDIVSR [L67D] belongs -0.462 ± 0.064; to RTSMTEEYRVPDGMVGLIIGRGGEQINKIQQDSGCKVQISPDSGGLPERSVSLTGAPESVQKAKMMHDDIVSR [L67H], -0.564 ± 0.084; to RTSMTEEYRVPDGMVGLIIGRGGEQINKIQQDSGCKVQISPDSGGLPERSVSLTGAPESVQKAKMMYDDIVSR [L67Y], -0.84 ± 0.12.
For RTSMTEEYRVPDGMVGLIIGRGGEQINKIQQDSGCKVQISPDSGGLPERSVSLTGAPESVQKAKMMQDDIVSR [L67Q] the value was -0.64 ± 0.064.
As to RTSMTEEYRVPDGMVGLIIGRGGEQINKIQQDSGCKVQISPDSGGLPERSVSLTGAPESVQKAKMMWDDIVSR [L67W], the abundance fitness is -1.06 ± 0.063.
Consider RTSMTEEYRVPDGMVGLIIGRGGEQINKIQQDSGCKVQISPDSGGLPERSVSLTGAPESVQKAKMMADDIVSR [L67A], for which the abundance fitness was -0.5 ± 0.045.
To RTSMTEEYRVPDGMVGLIIGRGGEQINKIQQDSGCKVQISPDSGGLPERSVSLTGAPESVQKAKMTLDDIVSR [M66T] belongs -0.661 ± 0.059; to RTSMTEEYRVPDGMVGLIIGRGGEQINKIQQDSGCKVQISPDSGGLPERSVSLTGAPESVQKAKMDLDDIVSR [M66D], -0.529 ± 0.072.
For RTSMTEEYRVPDGMVGLIIGRGGEQINKIQQDSGCKVQISPDSGGLPERSVSLTGAPESVQKAKMELDDIVSR [M66E] the value was -0.514 ± 0.056; for RTSMTEEYRVPDGMVGLIIGRGGEQINKIQQDSGCKVQISPDSGGLPERSVSLTGAPESVQKAKMILDDIVSR [M66I], -0.254 ± 0.076.
RTSMTEEYRVPDGMVGLIIGRGGEQINKIQQDSGCKVQISPDSGGLPERSVSLTGAPESVQKAKMLLDDIVSR [M66L]: the abundance fitness was -0.041 ± 0.046.
For RTSMTEEYRVPDGMVGLIIGRGGEQINKIQQDSGCKVQISPDSGGLPERSVSLTGAPESVQKAKMNLDDIVSR [M66N] the value was -0.688 ± 0.13; for RTSMTEEYRVPDGMVGLIIGRGGEQINKIQQDSGCKVQISPDSGGLPERSVSLTGAPESVQKAKMALDDIVSR [M66A], -0.185 ± 0.045; for RTSMTEEYRVPDGMVGLIIGRGGEQINKIQQDSGCKVQISPDSGGLPERSVSLTGAPESVQKAKMWLDDIVSR [M66W], -0.473 ± 0.054.
RTSMTEEYRVPDGMVGLIIGRGGEQINKIQQDSGCKVQISPDSGGLPERSVSLTGAPESVQKAKMPLDDIVSR [M66P]: the abundance fitness was -0.532 ± 0.054.
To RTSMTEEYRVPDGMVGLIIGRGGEQINKIQQDSGCKVQISPDSGGLPERSVSLTGAPESVQKAKMQLDDIVSR [M66Q] belongs -0.301 ± 0.063; to RTSMTEEYRVPDGMVGLIIGRGGEQINKIQQDSGCKVQISPDSGGLPERSVSLTGAPESVQKAKMVLDDIVSR [M66V], -0.456 ± 0.051.
For RTSMTEEYRVPDGMVGLIIGRGGEQINKIQQDSGCKVQISPDSGGLPERSVSLTGAPESVQKAKMRLDDIVSR [M66R] the value was -0.512 ± 0.042; for RTSMTEEYRVPDGMVGLIIGRGGEQINKIQQDSGCKVQISPDSGGLPERSVSLTGAPESVQKAKMKLDDIVSR [M66K], -0.462 ± 0.066; for RTSMTEEYRVPDGMVGLIIGRGGEQINKIQQDSGCKVQISPDSGGLPERSVSLTGAPESVQKAKMCLDDIVSR [M66C], -0.427 ± 0.069.
For RTSMTEEYRVPDGMVGLIIGRGGEQINKIQQDSGCKVQISPDSGGLPERSVSLTGAPESVQKAKMSLDDIVSR [M66S] the value was -0.428 ± 0.05; for RTSMTEEYRVPDGMVGLIIGRGGEQINKIQQDSGCKVQISPDSGGLPERSVSLTGAPESVQKAKMGLDDIVSR [M66G], -0.652 ± 0.047.
Regarding RTSMTEEYRVPDGMVGLIIGRGGEQINKIQQDSGCKVQISPDSGGLPERSVSLTGAPESVQKAKMHLDDIVSR [M66H], the abundance fitness is -0.523 ± 0.08.
With RTSMTEEYRVPDGMVGLIIGRGGEQINKIQQDSGCKVQISPDSGGLPERSVSLTGAPESVQKAKMYLDDIVSR [M66Y], the abundance fitness was -0.379 ± 0.086.
Consider RTSMTEEYRVPDGMVGLIIGRGGEQINKIQQDSGCKVQISPDSGGLPERSVSLTGAPESVQKAKMFLDDIVSR [M66F], for which the abundance fitness was -0.383 ± 0.1.
Turning to RTSMTEEYRVPDGMVGLIIGRGGEQINKIQQDSGCKVQISPDSGGLPERSVSLTGAPESVQKAKMMLQDIVSR [D68Q], the abundance fitness is -0.116 ± 0.054.
